Experimental data from US20140087995A1 (published 2014).
Blank lines part the entries; values can stand above or below the binder they belong to. Numbered stars: 1 amine (or outer) side, 2 acyl side, 3 side chain; on linkers, the order of the positions; unused ones are H or OH. Bridge positions count the residues as written; N and C are the ends. Side chains are listed from the residue outwards. Ends that are not written are not given here. * marks the point of attachment. C20 diacid = O=C(O)CCCCCCCCCCCCCCCCCCC(=O)*; γGlu = O=C(O)[C@H](CCC(=O)[*:2])N[*:1]; AEEA = NCCOCCOCC(=O)O

Legend:
[1] = target: T1, human amylin receptor (amylin 3(a) receptor: human calcitonin receptor co-expressed with RAMP-3) (human, UniProt P30988 25-474; O60896 24-148, limits assumed); experiment: cell-based or functional assay
T1 sequence (looked up) 1: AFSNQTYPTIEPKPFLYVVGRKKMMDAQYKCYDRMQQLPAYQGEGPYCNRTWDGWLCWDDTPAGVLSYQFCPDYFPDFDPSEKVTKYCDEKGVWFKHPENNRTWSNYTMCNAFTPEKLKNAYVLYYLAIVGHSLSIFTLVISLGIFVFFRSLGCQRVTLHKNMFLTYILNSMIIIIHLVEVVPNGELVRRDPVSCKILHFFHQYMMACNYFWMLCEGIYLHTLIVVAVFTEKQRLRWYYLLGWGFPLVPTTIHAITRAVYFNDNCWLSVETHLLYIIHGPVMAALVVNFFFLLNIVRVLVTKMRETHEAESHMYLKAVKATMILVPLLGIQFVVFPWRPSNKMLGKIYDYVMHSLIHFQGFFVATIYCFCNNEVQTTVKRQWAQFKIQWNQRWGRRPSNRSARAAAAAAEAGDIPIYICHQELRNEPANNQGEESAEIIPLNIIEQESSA
T1 sequence (looked up) 2: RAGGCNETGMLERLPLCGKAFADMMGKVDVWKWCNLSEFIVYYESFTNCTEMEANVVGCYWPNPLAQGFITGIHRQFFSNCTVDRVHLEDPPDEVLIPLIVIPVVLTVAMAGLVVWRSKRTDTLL

[2] = target: T2, human calcitonin receptor (human, UniProt P30988 25-474); experiment: cell-based or functional assay
T2 sequence (looked up): T1 sequence (looked up) 1

- hAmylin-R funct. EC50 [1]: 0.198 nM
- Ratio hCT/hAmylin funct. (hCTR EC50 against hAmylin-R EC50) [2]: 24
- hCTR funct. EC50 [2]: 4.75 nM
B1: N^ε-[(4S)-4-carboxy-4-(19-carboxynonadecanoylamino)butanoyl]Lys[Arg1,Arg17,Pro21,Pro27,His35]-h-amylin (peptide)
peptide: K([γGlu-C20 diacid])RCNTATCATQRLANFLRHSSPNFGAIPSSTNVGSHTY-NH2
modifications: disulfide 3-8; N-terminus assumed
SMILES: CC[C@H](C)[C@H](NC(=O)[C@H](C)NC(=O)CNC(=O)[C@H](Cc1ccccc1)NC(=O)[C@H](CC(N)=O)NC(=O)[C@@H]1CCCN1C(=O)[C@H](CO)NC(=O)[C@H](CO)NC(=O)[C@H](Cc1c[nH]cn1)NC(=O)[C@H](CCCNC(=N)N)NC(=O)[C@H](CC(C)C)NC(=O)[C@H](Cc1ccccc1)NC(=O)[C@H](CC(N)=O)NC(=O)[C@H](C)NC(=O)[C@H](CC(C)C)NC(=O)[C@H](CCCNC(=N)N)NC(=O)[C@H](CCC(N)=O)NC(=O)[C@@H](NC(=O)[C@H](C)NC(=O)[C@@H]1CSSC[C@H](NC(=O)[C@H](CCCNC(=N)N)NC(=O)[C@@H](N)CCCCNC(=O)CC[C@H](NC(=O)CCCCCCCCCCCCCCCCCCC(=O)O)C(=O)O)C(=O)N[C@@H](CC(N)=O)C(=O)N[C@@H]([C@@H](C)O)C(=O)N[C@@H](C)C(=O)N[C@@H]([C@@H](C)O)C(=O)N1)[C@@H](C)O)C(=O)N1CCC[C@H]1C(=O)N[C@@H](CO)C(=O)N[C@@H](CO)C(=O)N[C@H](C(=O)N[C@@H](CC(N)=O)C(=O)N[C@H](C(=O)NCC(=O)N[C@@H](CO)C(=O)N[C@@H](Cc1c[nH]cn1)C(=O)N[C@H](C(=O)N[C@@H](Cc1ccc(O)cc1)C(N)=O)[C@@H](C)O)C(C)C)[C@@H](C)O
notes: 38 residues: N-terminal extension by Lys (-1K); also called compound 44

- hAmylin-R funct. EC50 [1]: 0.044 nM
- Ratio hCT/hAmylin funct. (hCTR EC50 against hAmylin-R EC50) [2]: 12.3
- hCTR funct. EC50 [2]: 0.539 nM
B2: N^ε1-[(4S)-4-carboxy-4-(19-carboxynonadecanoylamino)butanoyl]-[His14,Arg17,Pro21,Pro27,Pro31]-h-amylin (peptide)
peptide: K([γGlu-C20 diacid])CNTATCATQRLAHFLRHSSPNFGAIPSSTPVGSNTY-NH2
modifications: disulfide 2-7; N-terminus assumed
SMILES: CC[C@H](C)[C@H](NC(=O)[C@H](C)NC(=O)CNC(=O)[C@H](Cc1ccccc1)NC(=O)[C@H](CC(N)=O)NC(=O)[C@@H]1CCCN1C(=O)[C@H](CO)NC(=O)[C@H](CO)NC(=O)[C@H](Cc1c[nH]cn1)NC(=O)[C@H](CCCNC(=N)N)NC(=O)[C@H](CC(C)C)NC(=O)[C@H](Cc1ccccc1)NC(=O)[C@H](Cc1c[nH]cn1)NC(=O)[C@H](C)NC(=O)[C@H](CC(C)C)NC(=O)[C@H](CCCNC(=N)N)NC(=O)[C@H](CCC(N)=O)NC(=O)[C@@H](NC(=O)[C@H](C)NC(=O)[C@@H]1CSSC[C@H](NC(=O)[C@@H](N)CCCCNC(=O)CC[C@H](NC(=O)CCCCCCCCCCCCCCCCCCC(=O)O)C(=O)O)C(=O)N[C@@H](CC(N)=O)C(=O)N[C@@H]([C@@H](C)O)C(=O)N[C@@H](C)C(=O)N[C@@H]([C@@H](C)O)C(=O)N1)[C@@H](C)O)C(=O)N1CCC[C@H]1C(=O)N[C@@H](CO)C(=O)N[C@@H](CO)C(=O)N[C@H](C(=O)N1CCC[C@H]1C(=O)N[C@H](C(=O)NCC(=O)N[C@@H](CO)C(=O)N[C@@H](CC(N)=O)C(=O)N[C@H](C(=O)N[C@@H](Cc1ccc(O)cc1)C(N)=O)[C@@H](C)O)C(C)C)[C@@H](C)O
notes: also called compound 62

- hAmylin-R funct. EC50 [1]: 0.04 nM
- Ratio hCT/hAmylin funct. (hCTR EC50 against hAmylin-R EC50) [2]: 17.9
- hCTR funct. EC50 [2]: 0.715 nM
B3: N^ε1-[(4S)-4-carboxy-4-(19-carboxynonadecanoylamino)butanoyl]-[His14,Arg17,Pro21,Pro27]-h-amylin (peptide)
peptide: K([γGlu-C20 diacid])CNTATCATQRLAHFLRHSSPNFGAIPSSTNVGSNTY-NH2
modifications: disulfide 2-7; N-terminus assumed
SMILES: CC[C@H](C)[C@H](NC(=O)[C@H](C)NC(=O)CNC(=O)[C@H](Cc1ccccc1)NC(=O)[C@H](CC(N)=O)NC(=O)[C@@H]1CCCN1C(=O)[C@H](CO)NC(=O)[C@H](CO)NC(=O)[C@H](Cc1c[nH]cn1)NC(=O)[C@H](CCCNC(=N)N)NC(=O)[C@H](CC(C)C)NC(=O)[C@H](Cc1ccccc1)NC(=O)[C@H](Cc1c[nH]cn1)NC(=O)[C@H](C)NC(=O)[C@H](CC(C)C)NC(=O)[C@H](CCCNC(=N)N)NC(=O)[C@H](CCC(N)=O)NC(=O)[C@@H](NC(=O)[C@H](C)NC(=O)[C@@H]1CSSC[C@H](NC(=O)[C@@H](N)CCCCNC(=O)CC[C@H](NC(=O)CCCCCCCCCCCCCCCCCCC(=O)O)C(=O)O)C(=O)N[C@@H](CC(N)=O)C(=O)N[C@@H]([C@@H](C)O)C(=O)N[C@@H](C)C(=O)N[C@@H]([C@@H](C)O)C(=O)N1)[C@@H](C)O)C(=O)N1CCC[C@H]1C(=O)N[C@@H](CO)C(=O)N[C@@H](CO)C(=O)N[C@H](C(=O)N[C@@H](CC(N)=O)C(=O)N[C@H](C(=O)NCC(=O)N[C@@H](CO)C(=O)N[C@@H](CC(N)=O)C(=O)N[C@H](C(=O)N[C@@H](Cc1ccc(O)cc1)C(N)=O)[C@@H](C)O)C(C)C)[C@@H](C)O
notes: also called compound 70

- hAmylin-R funct. EC50 [1]: 0.389 nM
- Ratio hCT/hAmylin funct. (hCTR EC50 against hAmylin-R EC50) [2]: 5
- hCTR funct. EC50 [2]: 1.95 nM
B4: N^ε21-[(4S)-4-carboxy-4-[[(4S)-4-carboxy-4-(19-carboxynonadecanoylamino)butanoyl]amino]butanoyl]-[Asp14,Arg17,Lys21,Pro27,Asp35]-h-amylin (peptide)
peptide: KCNTATCATQRLADFLRHSSK([γGlu-γGlu-C20 diacid])NFGAIPSSTNVGSDTY-NH2
modifications: disulfide 2-7; N-terminus assumed
SMILES: CC[C@H](C)[C@H](NC(=O)[C@H](C)NC(=O)CNC(=O)[C@H](Cc1ccccc1)NC(=O)[C@H](CC(N)=O)NC(=O)[C@H](CCCCNC(=O)CC[C@H](NC(=O)CC[C@H](NC(=O)CCCCCCCCCCCCCCCCCCC(=O)O)C(=O)O)C(=O)O)NC(=O)[C@H](CO)NC(=O)[C@H](CO)NC(=O)[C@H](Cc1c[nH]cn1)NC(=O)[C@H](CCCNC(=N)N)NC(=O)[C@H](CC(C)C)NC(=O)[C@H](Cc1ccccc1)NC(=O)[C@H](CC(=O)O)NC(=O)[C@H](C)NC(=O)[C@H](CC(C)C)NC(=O)[C@H](CCCNC(=N)N)NC(=O)[C@H](CCC(N)=O)NC(=O)[C@@H](NC(=O)[C@H](C)NC(=O)[C@@H]1CSSC[C@H](NC(=O)[C@@H](N)CCCCN)C(=O)N[C@@H](CC(N)=O)C(=O)N[C@@H]([C@@H](C)O)C(=O)N[C@@H](C)C(=O)N[C@@H]([C@@H](C)O)C(=O)N1)[C@@H](C)O)C(=O)N1CCC[C@H]1C(=O)N[C@@H](CO)C(=O)N[C@@H](CO)C(=O)N[C@H](C(=O)N[C@@H](CC(N)=O)C(=O)N[C@H](C(=O)NCC(=O)N[C@@H](CO)C(=O)N[C@@H](CC(=O)O)C(=O)N[C@H](C(=O)N[C@@H](Cc1ccc(O)cc1)C(N)=O)[C@@H](C)O)C(C)C)[C@@H](C)O
notes: also called compound 59

- hAmylin-R funct. EC50 [1]: 0.141 nM
- Ratio hCT/hAmylin funct. (hCTR EC50 against hAmylin-R EC50) [2]: 6.5
- hCTR funct. EC50 [2]: 0.92 nM
B5: N^ε1-[2-[2-[2-(19-carboxynonadecanoylamino)ethoxy]ethoxy]acetyl]-[Arg17,Pro21,Pro27]-h-amylin (peptide)
peptide: K([AEEA-C20 diacid])CNTATCATQRLANFLRHSSPNFGAIPSSTNVGSNTY-NH2
modifications: disulfide 2-7; N-terminus assumed
SMILES: CC[C@H](C)[C@H](NC(=O)[C@H](C)NC(=O)CNC(=O)[C@H](Cc1ccccc1)NC(=O)[C@H](CC(N)=O)NC(=O)[C@@H]1CCCN1C(=O)[C@H](CO)NC(=O)[C@H](CO)NC(=O)[C@H](Cc1c[nH]cn1)NC(=O)[C@H](CCCNC(=N)N)NC(=O)[C@H](CC(C)C)NC(=O)[C@H](Cc1ccccc1)NC(=O)[C@H](CC(N)=O)NC(=O)[C@H](C)NC(=O)[C@H](CC(C)C)NC(=O)[C@H](CCCNC(=N)N)NC(=O)[C@H](CCC(N)=O)NC(=O)[C@@H](NC(=O)[C@H](C)NC(=O)[C@@H]1CSSC[C@H](NC(=O)[C@@H](N)CCCCNC(=O)COCCOCCNC(=O)CCCCCCCCCCCCCCCCCCC(=O)O)C(=O)N[C@@H](CC(N)=O)C(=O)N[C@@H]([C@@H](C)O)C(=O)N[C@@H](C)C(=O)N[C@@H]([C@@H](C)O)C(=O)N1)[C@@H](C)O)C(=O)N1CCC[C@H]1C(=O)N[C@@H](CO)C(=O)N[C@@H](CO)C(=O)N[C@H](C(=O)N[C@@H](CC(N)=O)C(=O)N[C@H](C(=O)NCC(=O)N[C@@H](CO)C(=O)N[C@@H](CC(N)=O)C(=O)N[C@H](C(=O)N[C@@H](Cc1ccc(O)cc1)C(N)=O)[C@@H](C)O)C(C)C)[C@@H](C)O
notes: also called compound 43
